Data on 2 proteins can be found in US20150307565A1 (WISCONSIN ALUMNI RESEARCH FOUNDATION, published 2015).

Series [1] deals with the molecule itself. In words: X-ray crystallography (self-association in the crystal). On the procedure: Well ordered crystals were formed in solutions containing 15 mg/ml PhyB, 1.2 M MgSO₄, 4% glycerol, 1% poly(ethylene glycol) 3350, and 100 mM BisTris(HCl) (pH 5.5). Crystals were exchanged into 100 mM MgSO₄, 25% poly(ethylene glycol) 3350, 15% poly(ethylene glycol) 550 monomethyl ether, and 100 mM BisTris (pH 5.5), and flash cooled in liquid nitrogen. Final datasets were collected at the Life Sciences Collaborative Access Team at the Advanced Photon Source (Argonne, Ill.), and indexed, integrated, and scaled using HKL2000 (Otwinowski et al., Method Enzymol. 276-307-326 (1997)). Initial phases were calculated by PHASER (McCoy et al., J. Appl. Crystallogr 40:658-674 (2007)) using the PAS-GAF region of Syn-Cph1 as the search model (PDB 2VEA, (Essen et al., Proc. Natl. Acad. Sci. USA 105:14709-14714 (2008)). Manual model-building was conducted with COOT (Emlsey et al., Acta Crystallogr D Biol. Crystallogr 60:2126-2132 (2004)) and refined with PHENIX (McCoy et al., J. Appl. Crystallogr 40:658-674 (2007)) without real-space refinement and invoking non-crystallographic symmetry in torsion angle mode, and validated with MOLPROBITY (Chen et al., Acta Crystallogr D Biol. Crystallogr 66:12-21 (2010)). Superpositions were arranged with LSQKAB (Kabsch, Acta Crystallogr A 32:922-923 (1976)).

Series [2] concerns the molecule itself. As to the kind of experiment: equilibrium sedimentation (Pr) and size exclusion chromatography (Pr and Pfr); self-association. Here is the method:
FIG. 8A: Apparent size of PhyB(PSM) was measured by size exclusion chromatography (SEC) as either Pr (red circle) or following saturating red light irradiation (mostly Pfr) (purple circle). The column was calibrated with Bio-Rad size-exclusion protein standards and blue dextran (open circles). The partition coefficient, Kₐᵥ, was calculated using the equation, Kₐᵥ=(Vₑ−V₀)/(Vₜ−V₀), where Vₑ, V₀, and Vₜ are the elution, void and total volumes, respectively. V₀ and Vₜ were measured using blue dextran and vitamin B12. FIG. 8B: Equilibrium sedimentation was used to measure the mass of PhyB(PSM) as Pr using two concentrations and three rotor speeds. Lines represent global fits of the data. The calculated ratio of the measured molecular weight to that calculated from the sequence is shown.
Equilibrium sedimentation was conducted at 20° C. in darkness with Beckmann XL-A analytical ultracentrifuge and PhyB dissolved as Pr in SAB. SEC was conducted at 20° C. by FPLC (0.2 ml/min) with a 0.5×20 cm analytical grade Superdex 200 column (GE) equilibrated with SAB and 50 μl of either Pr samples or samples continuously irradiated with red light (mostly Pfr).

B1: Arabidopsis PhyB(90-624) biliprotein bearing a C-terminal SLHHHHHH tag, assembled with phytochromobilin (PΦB) (receptor, Arabidopsis thaliana)
chain: TTYGSSVPEQQITAYLSRIQRGGYIQPFGCMIAVDESSFRIIGYSENAREMLGIMPQSVPTLEKPEILAMGTDVRSLFTSSSSILLERAFVAREITLLNPVWIHSKNTGKPFYAILHRIDVGVVIDLEPARTEDPALSIAGAVQSQKLAVRAISQLQALPGGDIKLLCDTVVESVRDLTGYDRVMVYKFHEDEHGEVVAESKRDDLEPYIGLHYPATDIPQASRFLFKQNRVRMIVDCNATPVLVVQDDRLTQSMCLVGSTLRAPHGCHSQYMANMGSIASLAMAVIINGNEDDGSNVASGRSSMRLWGLVVCHHTSSRCIPFPLRYACEFLMQAFGLQLNMELQLALQMSEKRVLRTQTLLCDMLLRDSPAGIVTQSPSIMDLVKCDGAAFLYHGKYYPLGVAPSEVQIKDVVEWLLANHADSTGLSTDSLGDAGYPGAAALGDAVCGMAVAYITKRDFLFWFRSHTAKEIKWGGAKHHPEDKDDGQRMHPRSSFQAFLEVVKSRSQPWETAEMDAIHSLQLILRDSFKESEAASLHHHHHH
modifications: phytochromobilin (PΦB) attached by a thioether linkage to Cys-357
notes: Crystallized as Pr; Two subunits (A and B) form the crystal dimer; also called PDB 4OUR
For B1, the binding result in series [1] is listed as “binds”.

B2: Arabidopsis PhyB PSM (residues 1-624) assembled with PΦB (receptor, Arabidopsis thaliana, UniProt P14713 1-624, looked up)
chain: MVSGVGGSGGGRGGGRGGEEEPSSSHTPNNRRGGEQAQSSGTKSLRPRSNTESMSKAIQQYTVDARLHAVFEQSGESGKSFDYSQSLKTTTYGSSVPEQQITAYLSRIQRGGYIQPFGCMIAVDESSFRIIGYSENAREMLGIMPQSVPTLEKPEILAMGTDVRSLFTSSSSILLERAFVAREITLLNPVWIHSKNTGKPFYAILHRIDVGVVIDLEPARTEDPALSIAGAVQSQKLAVRAISQLQALPGGDIKLLCDTVVESVRDLTGYDRVMVYKFHEDEHGEVVAESKRDDLEPYIGLHYPATDIPQASRFLFKQNRVRMIVDCNATPVLVVQDDRLTQSMCLVGSTLRAPHGCHSQYMANMGSIASLAMAVIINGNEDDGSNVASGRSSMRLWGLVVCHHTSSRCIPFPLRYACEFLMQAFGLQLNMELQLALQMSEKRVLRTQTLLCDMLLRDSPAGIVTQSPSIMDLVKCDGAAFLYHGKYYPLGVAPSEVQIKDVVEWLLANHADSTGLSTDSLGDAGYPGAAALGDAVCGMAVAYITKRDFLFWFRSHTAKEIKWGGAKHHPEDKDDGQRMHPRSSFQAFLEVVKSRSQPWETAEMDAIHSLQLILRDSFKESEAA
modifications: phytochromobilin (PΦB) attached by a thioether linkage to Cys-357
notes: Tested for self-association in solution as Pr (equilibrium sedimentation, SEC) and as mostly Pfr after red light (SEC); also called full PSM fragment; full-length PSM; not shown: 6His tag: the PSM constructs carried N- or C-terminal 6His tags (the N-terminal one is TEV-cleavable and leaves Gly-His)
On to B2, for which the binding result in series [2] is given as “no binding”.
